Test results published in patent publication US20090099075A1.

Biological target: human hair (hair keratin) (human)
Assay: quantitative hair binding assay, peroxidase coupled via the His tag, TMB

B1: KBD-B (keratin-binding domain B of human desmoplakin), His-tagged, expressed from pQE30-KBD-B (SEQ ID No.: 166) (protein)
chain: MRGSHHHHHHGSACELEPHTGLLLLSVQKRSMSFQGIRQPVTVTELVDSGILRPSTVNELESGQISYDEVGERIKDFLQGSSCIAGIYNETTKQKLGIYEAMKIGLVRPGTALELLEAQAATGFIVDPVSNLRLPVEEAYKRGLVGIEFKEKLLSAERAVTGYNDPETGNIISLFQAMNKELIEKGHGIRLLEAQIATGGIIDPKESHRLPVDIAYKRGYFNEELSEILSDPSDDTKGFFDPNTEENLTYLQLKERCIKDEETGLCLLPLKEKKKQVQTSQKNTLRKRRVVIVDPETNKEMSVQEGVDLQPSLIS
absorption at 405 nm: 0.65 A405 nm
